Results published in the supplement of paper PMC7125110.
± gives the standard error. Variants at the floor of the assay were thinned out.

B1: glmS ribozyme (parent)
chain: AUAAAAGCGCCAGAACUACAGAAAUGUAGUUGACGAGGAGGAGGUUUAUCGAAUUUUCGGCGGAUGCCUCCAAA

Legend:
Details in all cases: with glucosamine-6-phosphate
glucosamine-6-phosphate [1] = variants of: B1; assay: self-cleavage kobs at 640 uM GlcN6P; higher = faster cleavage; RNA array
Procedure, shortened: (§1)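 kcat and KM were obtained from weighted Michaelis–Menten fits across concentrations of kobs values. Those came from one- or two-exponential decay fits to per-tile medians normalised to baseline and to non-cleaving reference variants. The variants were barcoded ribozymes transcribed in situ by E. coli RNA polymerase on sequenced MiSeq chips and tracked through a hybridised Cy3 probe at 37 °C, with 40 μM to 10 mM glucosamine-6-phosphate in HEPES/KCl/Mg(OAc)2 buffer flowed in.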

glucosamine-6-phosphate [2] = variants of: B1; assay: self-cleavage kobs at 2500 uM GlcN6P; higher = faster cleavage; RNA array
Procedure, shortened: as §1

glucosamine-6-phosphate [3] = variants of: B1; assay: self-cleavage kobs at 10000 uM GlcN6P; higher = faster cleavage; RNA array
Procedure, shortened: as §1

| Variant | self-cleavage kobs at 640 uM GlcN6P (glucosamine-6-phosphate [1]) | self-cleavage kobs at 2500 uM GlcN6P (glucosamine-6-phosphate [2]) | self-cleavage kobs at 10000 uM GlcN6P (glucosamine-6-phosphate [3]) |
| --- | --- | --- | --- |
| AUAAAACAGCCAGAACUACAGAAAUGUAGCUGCCGAGGAGGAGGUUUAUCGAAUUUUCGGCGGAUGCCUCCAAA [G7C C8A U30C A33C] | < 1e-05 s⁻¹ | < 1e-05 s⁻¹ | < 1e-05 s⁻¹ |
| AUAAAAGCGCCAGAACUACAGAAAUGUAGUUGCCGAGGAGGUGGUUUAUCGAAUUUUCGGCGGAUGCCUCCAAA [A33C A42U] | < 1e-05 s⁻¹ | < 1e-05 s⁻¹ |  |
| AUAAAAGCCCCAGAAGUACAGAAAUGUAGUUGACGAGGAGGAGGUUUAUCGAAUUUUCGGCGGAUGCCUCCAAA [G9C C16G] | < 1e-05 s⁻¹ | < 1e-05 s⁻¹ |  |
| AUAAAAGCGCUAGAACUACAGAAAUGUAGUUGACGAGGAGGAGGUUUAUCGAAUUUUCGGGGGAUGACUCCAAA [C11U C61G C67A] | 0.000183 ± 5.6e-05 s⁻¹ | 0.000446 ± 0.00017 s⁻¹ |  |
| AUAAAAGCGCCAGAACUACAGAAAUGUAGUUGACGAGGAGGAGGUUUAUCGAAGCGUCCGCGGAUGCCGCCAAA [U54G U55C U56G G59C U69G] | 0.000119 ± 4.3e-05 s⁻¹ | 6.83e-05 ± 2.7e-05 s⁻¹ |  |
| AUAAAAGCGCCAGAAAUACAGAAAUGUAGUUAAAGAGGAGGAGGUUUAUCGAAUUUUCGGCGGAUGCCUCCAAA [C16A G32A C34A] | < 1e-05 s⁻¹ | < 1e-05 s⁻¹ | < 1e-05 s⁻¹ |
| AUAAAAGCGCCAGAACUACAGAAAUGUAGUUGACGAGGAGGUGGUUUAUCGAAUUUUCGGCGGAUGACGCUAAA [A42U C67A U69G C71U] | 4.51e-05 ± 2e-05 s⁻¹ | 7.23e-05 ± 1.9e-05 s⁻¹ |  |
| AUAAAAGCGCCAGAACUACAGAAAUGUAGUCGACGAGGAGGUGAUUUAUCGAAUUUUCGGCGGAUGCCUCCAAA [U31C A42U G44A] | < 1e-05 s⁻¹ | < 1e-05 s⁻¹ |  |
| AUAAAAGCGACAGCACUACAGAAAUGUAGUUGACGAGGAGGAGGUUUAUCGAAUUUUCGGCGGUUGCCUCCAAA [C10A A14C A64U] | < 1e-05 s⁻¹ | < 1e-05 s⁻¹ |  |
| AUAAAAGCGCCAGAACUACAGAAAUGUAGUUGACGAGGAGGAGGUUUUUGGAAUUUUCGGCGGAUGCCUUCAAA [A48U C50G C70U] | 9.42e-05 ± 2.9e-05 s⁻¹ |  |  |
| AUAAAAGCGCGAUAACUACAGAAAUGUAGUUGACGAGGAGGAGGUUUAUGGAAUUUUCGUGGGAUGCCUCCAAA [C11G G13U C50G G60U C61G] | 5.02e-05 ± 2.4e-05 s⁻¹ |  |  |
| AUAAAAGGGCCAGAACUACAGAAAUGUAGUUGACGAGGAGGAGGUUUAUCGAACUUUCGACGGAUGCCUCCAAA [C8G U54C G60A] | < 1e-05 s⁻¹ | < 1e-05 s⁻¹ |  |
| AUAAAAGCGCCAGGAAUACAGAAAUGUAGUUGACGAGGAGGAGGUUUAUCGAAUUUUCGGCCGAUGCCUCCAAA [A14G C16A G62C] | < 1e-05 s⁻¹ |  |  |
| AUAAAAGCGCCAGAACUACAGAAAUGUAGUUGAUGAGGAGGAGGUUUAUCGAAUUUUCGGCGGAUGCCUACAAA [C34U C70A] | 0.00139 ± 0.00062 s⁻¹ |  |  |
| AUAAAAGCGCCACAACUACAGAAAUGUAGUUGACGUGGAGGAGGUUUAUCGAAUUUUCAGCGGAUGCCUCCAAA [G13C A36U G59A] | < 1e-05 s⁻¹ |  |  |
| AUAAAAGCGCCAGAACUACAGAAAUGUAGUUGACGAAGAGGAGGUUUUUCGAACUUUCGGCGGAUGCCUCCAAA [G37A A48U U54C] | < 1e-05 s⁻¹ |  |  |
| AUAAAAGCGCCAGAACUACAGAAAUGUAGCAGACGAGGAGGAGGAUUAUCGAAUUUUCGGCGGAUGCCUCCAAA [U30C U31A U45A] | 0.00111 ± 0.00052 s⁻¹ | 0.000661 ± 0.0003 s⁻¹ |  |
| AUAAAAGCGUCAGAACUACAGAAAUGUAGUUGGCGAGGAUGAGGUUUAUCGAAUUUUCGGCGGAUGCCUCCAAA [C10U A33G G40U] | < 1e-05 s⁻¹ |  |  |
| AUAAAAGGGCCAGAACUACAGAAAUGUAGUUGACGUGGAGGAGGUUUAUCGAAUUUUCGGCGGAUGCCUUCAAA [C8G A36U C70U] | < 1e-05 s⁻¹ |  |  |
| AUAAACGCGCCAGAACUACAGAAAUGUAGUUGACGAGGGGGAGGUUUAUCGAAUUUGCGGCGGAUGCCUCCAAA [A6C A39G U57G] | < 1e-05 s⁻¹ | < 1e-05 s⁻¹ |  |
| AUAAAAGCGCCAGAACUACAGAAAUGUAGUUCACGAGGAGGAGGUUUAUCGAAUUAUCGGCGGAGGCCGCCAAA [G32C U56A U65G U69G] | 0.000283 ± 0.0001 s⁻¹ | 6.06e-05 ± 3e-05 s⁻¹ |  |
| AUAAAAGCGCGAGAAGUACAGAAAUGUAGUUGACGAGAAGGAGGUUUAUCGAAUUUUCGGCGAAUGCCUCCAAA [C11G C16G G38A G63A] | < 1e-05 s⁻¹ |  |  |
| AUAAAAGCGCCAGAACUACAGAAAUGUACUUGACGAGGAGGAGGAUUAUCGAAUUUUCGGCGGAUGACUCCAAA [G29C U45A C67A] | 0.000165 ± 4.8e-05 s⁻¹ |  |  |

| Variant | self-cleavage kobs at 640 uM GlcN6P (glucosamine-6-phosphate [1]) | self-cleavage kobs at 2500 uM GlcN6P (glucosamine-6-phosphate [2]) | self-cleavage kobs at 10000 uM GlcN6P (glucosamine-6-phosphate [3]) |
| --- | --- | --- | --- |
| AUAAAAGCGCCAGAACUACAGAAAUGUAGUUGACGAGGAGGAGGUUCAUCGAAUCUUCGGCGGAUGCCUCCAAA [U47C U55C] | 0.00134 ± 0.00031 s⁻¹ | 0.0023 ± 0.00064 s⁻¹ |  |
| AUAAAAGCGCCUGAACUACAGAAAUGUAGUAGAUGACGAGGAGGUUUAUCGAAUUUUCGGCGGAUGCCUUCAAA [A12U U31A C34U G37C C70U] | < 1e-05 s⁻¹ |  |  |
| AUAAAAGCGCCAUAACUACAGAAAUGUAGUAGACGAGGAGGAGGGUUCUCGAAUUUUCGGCGGAUGCCUCCAAA [G13U U31A U45G A48C] | < 1e-05 s⁻¹ | < 1e-05 s⁻¹ |  |
| AUAAAAGCGCCAGAACUACAGAAAUGUAUUUGACGAGGAAGAGGUUUAUCGAAUUUUCGGCGGAUGCCUUCAAA [G29U G40A C70U] | 3.68e-05 ± 1.2e-05 s⁻¹ |  |  |
| AUAAAAGCGCCAGAACUACAGAAAUGUAGUCGACGAGGAGGAGGUUUAUCGCAUUUUCGGCGGAUGCCUCAAAA [U31C A52C C71A] | < 1e-05 s⁻¹ |  |  |
| AUAAAAGCGCCAGAACUACAGAAAUGUAGUUGACGAGGAGGCGUUUUAUCGAAUUUUCGGCGGAUGCCUCCAAA [A42C G44U] | < 1e-05 s⁻¹ |  | < 1e-05 s⁻¹ |
| AUAAAAGCGCCGGAACUACAGAAAUGUAGUUGACGAGGAGGAGGUUUAUGGAAUUUUCGGCGGAUGCCUCGAAA [A12G C50G C71G] | 0.000415 ± 0.00014 s⁻¹ | 0.000636 ± 0.00027 s⁻¹ |  |
| AUAAAAGCGCCAGAACUACAGAAAUGUAGUUGACGCGGAGGAGGUUUAUCGAAUUUUCGCCGGAUGCCUCCAAA [A36C G60C] | < 1e-05 s⁻¹ |  |  |
| AUAAAAGCGCCAGAACUACAGAAAUGUAGUUGAUGAGGAGGAUGUUUAUCGAAUUUUCCGCGGAUGCCUCCAAA [C34U G43U G59C] | < 1e-05 s⁻¹ | < 1e-05 s⁻¹ |  |
| AUAAAAGCGCCAGAACUACAGAAAUGUAGUUGCCGAGAAGGAGGUUGAUCGAAUUUUCGGCGGAUGCCUCCAAA [A33C G38A U47G] | < 1e-05 s⁻¹ | < 1e-05 s⁻¹ |  |
| AUAAAAUCGCCAGAACUACAGAAAUGUAGUUGCCGAGGAGGAGGUUAAUCGAAUUUUCGGCGGAUGCCUCCAAA [G7U A33C U47A] | < 1e-05 s⁻¹ | < 1e-05 s⁻¹ |  |
| AUAAAAGCGCCAGAACUACAGAAAUGUAGUUUACGAGGAGGAGGUUUAUCGAAUUUUAGGCGGAUGACUCCAAA [G32U C58A C67A] | 7.59e-05 ± 1.8e-05 s⁻¹ | 0.000241 ± 4.9e-05 s⁻¹ |  |
| AUAAAAGCGCCAGAACUACAGAAAUGUAGCUGAAGGGGAGGAGGUUUAUCGUAUUUUCGGCGGAUGCCUCCAAA [U30C C34A A36G A52U] | < 1e-05 s⁻¹ | < 1e-05 s⁻¹ |  |
| AUAAAAGCGCCAAAACUACAGAAAUGUAGUUGACGAGGAGGAGGUUUAUCGAAUUUACGGCGGCUGCAUCCAAA [G13A U57A A64C C68A] | 0.000763 ± 0.00019 s⁻¹ |  |  |
| AUAAAAUCGCCAGAACUACAGAAAUGUAGUUGACGAGGAGGAGGUUUAUCGAAUGUCCGGCGGAUGCCUCCAAA [G7U U55G U57C] | < 1e-05 s⁻¹ | < 1e-05 s⁻¹ | < 1e-05 s⁻¹ |
| AUAAAAGCUACAGAACUACAGAAAUGUAGUUGACGAGGAGGUGGUUUAUCAAAGUUUCGCCGGAUGCCUCCAAA [G9U C10A A42U G51A U54G G60C] | < 1e-05 s⁻¹ |  |  |
| AUAAAAGCGCCAGAAUUACAGAAAUGUAGUUGACGAGGGGGAGGUUUAUCGAAUUUUCGGCGGAUACCUCCAAA [C16U A39G G66A] | 0.00662 ± 0.0015 s⁻¹ |  |  |
| AUAAAAUCGCCAGAACUACAGAAAUGUAGUUGACGAGGAGGAGGUAUAUCGAAUUUUCGGCGGAUGCUUCCAAA [G7U U46A C68U] | < 1e-05 s⁻¹ | < 1e-05 s⁻¹ |  |
| AUAAAAGCGCCAGAACUACAGAAAUGUAGUUGUCGAGGAGUAGGUUUAUCGAAUUUUCGCCGGAUGCCUCCAAA [A33U G41U G60C] | < 1e-05 s⁻¹ |  |  |
| AUAAAAGCGCCAGAAUUACAGAAAUGUAGUUGACGAGGAGGAGGUCUAUCGAUUUUUCGGCGGAUGCCUCCAAA [C16U U46C A53U] | 0.000328 ± 7.3e-05 s⁻¹ | 0.00078 ± 0.00025 s⁻¹ |  |
| AUAAAAGCGCCAGAACUACAGAAAUGUAGGUGACGAGGAGGAGGUUUAUUGAAUUUUCGGCGGGUUCCUCCAAA [U30G C50U A64G G66U] | < 1e-05 s⁻¹ | < 1e-05 s⁻¹ |  |
| AUAAAAGCGCCAGAACUACAGAAAUGUAGUUGACAAGGAGGAGGUUUAUCGAAUGUUCGGCGAGUGCCUCCAAA [G35A U55G G63A A64G] | < 1e-05 s⁻¹ |  |  |
